Source: patent US20100166827A1

Biological target: αVβ1/3/5 integrins located in the cardiomyocyte cell membrane
Assay: cell-based or functional assay

Recombinant periostin, purified from HEK293 cells expressing the full-length human cDNA (from UniProt Q15063 22-836) (ligand)
half-maximal stimulation of DNA synthesis in primary neonatal rat ventricular cardiomyocytes (BrdU uptake): 155 nM
